Experimental data as given in patent publication US20210388087A1 (Chugai, published 2021).
Numbering of substitutions follows the chain as printed. In names and notes the source's numbering stands.

T1: Human CD3eg linker (human)
T1 construct: Single-chain construct; also called recombinant human CD3
T1 chain: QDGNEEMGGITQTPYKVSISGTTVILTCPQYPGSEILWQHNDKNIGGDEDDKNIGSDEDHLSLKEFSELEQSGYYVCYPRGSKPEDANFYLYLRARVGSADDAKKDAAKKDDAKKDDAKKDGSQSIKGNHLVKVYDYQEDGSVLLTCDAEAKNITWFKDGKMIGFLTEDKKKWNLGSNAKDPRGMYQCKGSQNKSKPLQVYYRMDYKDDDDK

B1: H183/L072 VL N53Q (antibody, name in Kabat numbering, V domains shown)
VH: QVQLVESGGGLVQPGRSLRLSCAASGFTFSNAWMHWVRQAPGKGLEWVAQIKDKGNAYAAYYAPSVKGRFTISRDDSKNSIYLQMNSLKTEDTAVYYCHYVHYASASTVLPAFGVDAWGQGTTVTVSS
VL: DIVMTQSPLSLPVTPGEPASISCQASQELVHMNRNTYLHWYQQKPGQAPRLLIYKVSQRFPGVPDRFSGSGSGTDFTLKISRVEAEDVGVYYCAQGTSVPFTFGQGTKLEIK
B2: H183/L072 VL N53R (antibody, name in Kabat numbering, V domains shown)
VH: B1 VH
VL: B1 VL with Q58R
B3: H183/L072 VL N53S (antibody, name in Kabat numbering, V domains shown)
VH: B1 VH
VL: B1 VL with Q58S
B4: H183/L072 VL N53T (antibody, name in Kabat numbering, V domains shown)
VH: B1 VH
VL: B1 VL with Q58T
B5: H183/L072 VL N53V (antibody, name in Kabat numbering, V domains shown)
VH: B1 VH
VL: B1 VL with Q58V
B6: H183/L072 VL N53W (antibody, name in Kabat numbering, V domains shown)
VH: B1 VH
VL: B1 VL with Q58W
B7: H183/L072 VL P56A (antibody, name in Kabat numbering, V domains shown)
VH: B1 VH
VL: B1 VL with Q58N, P61A
B8: H183/L072 VL P56D (antibody, name in Kabat numbering, V domains shown)
VH: B1 VH
VL: B1 VL with Q58N, P61D
B9: H183/L072 VL P56E (antibody, name in Kabat numbering, V domains shown)
VH: B1 VH
VL: B1 VL with Q58N, P61E
B10: H183/L072 VL P56F (antibody, name in Kabat numbering, V domains shown)
VH: B1 VH
VL: B1 VL with Q58N, P61F
B11: H183/L072 VL P56G (antibody, name in Kabat numbering, V domains shown)
VH: B1 VH
VL: B1 VL with Q58N, P61G
B12: H183/L072 VL P56H (antibody, name in Kabat numbering, V domains shown)
VH: B1 VH
VL: B1 VL with Q58N, P61H
B13: H183/L072 VL P56I (antibody, name in Kabat numbering, V domains shown)
VH: B1 VH
VL: B1 VL with Q58N, P61I
B14: H183/L072 VL P56K (antibody, name in Kabat numbering, V domains shown)
VH: B1 VH
VL: B1 VL with Q58N, P61K
B15: H183/L072 VL P56L (antibody, name in Kabat numbering, V domains shown)
VH: B1 VH
VL: B1 VL with Q58N, P61L
B16: H183/L072 VL P56M (antibody, name in Kabat numbering, V domains shown)
VH: B1 VH
VL: B1 VL with Q58N, P61M
B17: H183/L072 VL P56N (antibody, name in Kabat numbering, V domains shown)
VH: B1 VH
VL: B1 VL with Q58N, P61N
B18: H183/L072 VL P56Q (antibody, name in Kabat numbering, V domains shown)
VH: B1 VH
VL: B1 VL with Q58N, P61Q
B19: H183/L072 VL P56R (antibody, name in Kabat numbering, V domains shown)
VH: B1 VH
VL: B1 VL with Q58N, P61R
B20: H183/L072 VL P56S (antibody, name in Kabat numbering, V domains shown)
VH: B1 VH
VL: B1 VL with Q58N, P61S
B21: H183/L072 VL P56T (antibody, name in Kabat numbering, V domains shown)
VH: B1 VH
VL: B1 VL with Q58N, P61T
B22: H183/L072 VL P56V (antibody, name in Kabat numbering, V domains shown)
VH: B1 VH
VL: B1 VL with Q58N, P61V
B23: H183/L072 VL P56W (antibody, name in Kabat numbering, V domains shown)
VH: B1 VH
VL: B1 VL with Q58N, P61W
B24: H183/L072 VL P95D (antibody, name in Kabat numbering, V domains shown)
VH: B1 VH
VL: B1 VL with Q58N, P100D
B25: H183/L072 VL P95E (antibody, name in Kabat numbering, V domains shown)
VH: B1 VH
VL: B1 VL with Q58N, P100E
B26: H183/L072 VL P95H (antibody, name in Kabat numbering, V domains shown)
VH: B1 VH
VL: B1 VL with Q58N, P100H
B27: H183/L072 VL P95K (antibody, name in Kabat numbering, V domains shown)
VH: B1 VH
VL: B1 VL with Q58N, P100K
B28: H183/L072 VL P95Q (antibody, name in Kabat numbering, V domains shown)
VH: B1 VH
VL: B1 VL with Q58N, P100Q
B29: H183/L072 VL P95S (antibody, name in Kabat numbering, V domains shown)
VH: B1 VH
VL: B1 VL with Q58N, P100S
B30: H183/L072 VL P95T (antibody, name in Kabat numbering, V domains shown)
VH: B1 VH
VL: B1 VL with Q58N, P100T
B31: H183/L072 VL Q24A (antibody, name in Kabat numbering, V domains shown)
VH: B1 VH
VL: B1 VL with Q24A, Q58N
B32: H183/L072 VL Q24D (antibody, name in Kabat numbering, V domains shown)
VH: B1 VH
VL: B1 VL with Q24D, Q58N
B33: H183/L072 VL Q24E (antibody, name in Kabat numbering, V domains shown)
VH: B1 VH
VL: B1 VL with Q24E, Q58N

Target: T1, Human CD3eg linker
Assay: SPR; fold vs parent H183/L072

B1 was tested. Which “fold change of affinity” value did it give?
The value was 0.8 fold.

How did the “fold change of affinity” value turn out when B2 was run?
The value was 1.8 fold.

B3 was tested. Which “fold change of affinity” value did it give?
The value was 0.9 fold.

How did the “fold change of affinity” value turn out when B4 was run?
Its value is 0.4 fold.

How did the “fold change of affinity” value turn out when B5 was run?
Its value is 0.3 fold.

How did the “fold change of affinity” value turn out when B6 was run?
The value was 0.7 fold.

B7 was tested. Which “fold change of affinity” value did it give?
The value was 4.1 fold.

How did the “fold change of affinity” value turn out when B8 was run?
Its value is 3 fold.

Which “fold change of affinity” value does the source give for B9 here?
The value was 3.4 fold.

B10 was tested. Which “fold change of affinity” value did it give?
Its value is 3.3 fold.

B11 was tested. Which “fold change of affinity” value did it give?
The value was 3.7 fold.

For B12, which “fold change of affinity” value is on record?
The value was 2.9 fold.

How did the “fold change of affinity” value turn out when B13 was run?
Its value is 3.1 fold.

With B14 as the binder, how does the “fold change of affinity” value read?
Its value is 5.6 fold.

Which “fold change of affinity” value does the source give for B15 here?
Its value is 3.1 fold.

How did the “fold change of affinity” value turn out when B16 was run?
The value was 3.9 fold.

How did the “fold change of affinity” value turn out when B17 was run?
The value was 3.3 fold.

For B18, which “fold change of affinity” value is on record?
The value was 3.7 fold.

How did the “fold change of affinity” value turn out when B19 was run?
Its value is 5.5 fold.

For B20, which “fold change of affinity” value is on record?
The value was 4.1 fold.

How did the “fold change of affinity” value turn out when B21 was run?
The value was 3.9 fold.

Which “fold change of affinity” value does the source give for B22 here?
Its value is 3.4 fold.

B23 was tested. Which “fold change of affinity” value did it give?
Its value is 3 fold.

For B24, which “fold change of affinity” value is on record?
The value was 0 fold.

How did the “fold change of affinity” value turn out when B25 was run?
The value was 0 fold.

With B26 as the binder, how does the “fold change of affinity” value read?
Its value is 0 fold.

Which “fold change of affinity” value does the source give for B27 here?
The value was 0 fold.

B28 was tested. Which “fold change of affinity” value did it give?
The value was 0 fold.

With B29 as the binder, how does the “fold change of affinity” value read?
Its value is 0 fold.

How did the “fold change of affinity” value turn out when B30 was run?
Its value is 0 fold.

With B31 as the binder, how does the “fold change of affinity” value read?
The value was 1.1 fold.

With B32 as the binder, how does the “fold change of affinity” value read?
Its value is 1.2 fold.

With B33 as the binder, how does the “fold change of affinity” value read?
Its value is 0 fold.
